The values that follow come from patent US20250270301A1 (GEN2 NEUROSCIENCE, published 2025).

Sequences and labels used below:
B1: #44_VH4VK4_H05/pVL (antibody, V domains shown)
VH: QVQLQESGPGLVKPSETLSLTCTVSGIDLSSYAMAWVRQAPGKGLEWIGCIDRRGGTFYASWVKGRFTISKDTSKTTVDLQMTSLTAEDTATYFCARDAGHFDYWGQGTLVTVSS
VL: DIQMTQSPSSLSASVGDRVTITCQASQSVYDNYLAWYQQKPGQPPKLLIHAASNLASGVPSRFSGSGSGTEFTLTISSLQPDDFATYYCLGEFSCTTTDCNVFGGGTKVEIK
notes: also called Clone VH4_H05; #44_VH4_H05
B2: #44_VH4VK4_H19/pVL (antibody, V domains shown)
VH: B1 VH with C50A, R53S, G56A, A99S, H101A, Y104P
VL: B1 VL
notes: also called Clone VH4_H19; #44_VH4_H19
B3: #44_VH4VK4_H08/pVL (antibody, V domains shown)
VH: B1 VH with C50A, R53A, R54A, G56R, A99S, H101A, Y104P
VL: B1 VL
notes: also called Clone VH4_H08; #44_VH4_H08
B4: #44_VH4VK4_H18/pVL (antibody, V domains shown)
VH: B1 VH with C50A, R53A, R54G, G56N, A99S, H101A, Y104P
VL: B1 VL
notes: also called Clone VH4_H18; #44_VH4_H18
B5: #44_VH4VK4_H13/pVL (antibody, V domains shown)
VH: B1 VH with C50A, R53S, R54A, G56N, A99S, H101A, Y104P
VL: B1 VL
notes: also called Clone VH4_H13; #44_VH4_H13
B6: #44_VH4VK4_H17/pVL (antibody, V domains shown)
VH: B1 VH with C50A, R54V, G56N, A99S, H101A, Y104P
VL: B1 VL
notes: also called Clone VH4_H17; #44_VH4_H17
B7: #44_VH4VK4_H07/pVL (antibody, V domains shown)
VH: B1 VH with C50A, R53A, R54A, G56N, A99S, H101A, Y104P
VL: B1 VL
notes: also called Clone VH4_H07; #44_VH4_H07
B8: #44_VH4VK4_H16/pVL (antibody, V domains shown)
VH: B1 VH with C50A, R54A, G56N, A99S, H101A, Y104P
VL: B1 VL
notes: also called Clone VH4_H16; #44_VH4_H16
B9: #44_VH4VK4_H14/pVL (antibody, V domains shown)
VH: B1 VH with C50A, R53S, R54A, G56S, F67S, A99S, H101A, Y104P
VL: B1 VL
notes: also called Clone VH4_H14; #44_VH4_H14
B10: #44_VH4VK4_H09/pVL (antibody, V domains shown)
VH: B1 VH with C50A, R53A, G56N, A99S, H101A, Y104P
VL: B1 VL
notes: also called Clone VH4_H09; #44_VH4_H09
B11: #44_VH4VK4_H12/pVL (antibody, V domains shown)
VH: B1 VH with C50A, R53A, G56S, A99S, H101A, Y104P
VL: B1 VL
notes: also called Clone VH4_H12; #44_VH4_H12
B12: #44_VH4VK4 pVH/L2 (antibody, V domains shown)
VH: B1 VH with A99S, H101A, Y104P
VL: DIQMTQSPSSLSASVGDRVTITCQASQSVYDNYLAWYQQKPGQPPKLLIHAASNLASGVPSRFSGSGSGTEFTLTISSLQPDDFATYYCLGEFSCQDTDCNVFGGGTKVEIKR
notes: also called Clone VK4_L2; #44_VK4_L2
B13: #44_VH4VK4_H11/pVL (antibody, V domains shown)
VH: B1 VH with C50A, R53A, G56A, A99S, H101A, Y104P
VL: B1 VL
notes: also called Clone VH4_H11; #44_VH4_H11
B14: #44_VH4VK4_H20/pVL (antibody, V domains shown)
VH: B1 VH with C50A, R53S, G56S, A99S, H101A, Y104P
VL: B1 VL
notes: also called Clone VH4_H20; #44_VH4_H20
B15: #44_VH4VK4_H15/pVL (antibody, V domains shown)
VH: B1 VH with C50A, R53S, R54V, G56N, A99S, H101A, Y104P
VL: B1 VL
notes: also called Clone VH4_H15; #44_VH4_H15
B16: #44_VH4VK4_H10/pVL (antibody, V domains shown)
VH: B1 VH with C50A, R53A, G56R, A99S, H101A, Y104P
VL: B1 VL
notes: also called Clone VH4_H10; #44_VH4_H10

Changes are numbered by the printed parent chain.

T2 sequence (P02769 25-607 limits assumed): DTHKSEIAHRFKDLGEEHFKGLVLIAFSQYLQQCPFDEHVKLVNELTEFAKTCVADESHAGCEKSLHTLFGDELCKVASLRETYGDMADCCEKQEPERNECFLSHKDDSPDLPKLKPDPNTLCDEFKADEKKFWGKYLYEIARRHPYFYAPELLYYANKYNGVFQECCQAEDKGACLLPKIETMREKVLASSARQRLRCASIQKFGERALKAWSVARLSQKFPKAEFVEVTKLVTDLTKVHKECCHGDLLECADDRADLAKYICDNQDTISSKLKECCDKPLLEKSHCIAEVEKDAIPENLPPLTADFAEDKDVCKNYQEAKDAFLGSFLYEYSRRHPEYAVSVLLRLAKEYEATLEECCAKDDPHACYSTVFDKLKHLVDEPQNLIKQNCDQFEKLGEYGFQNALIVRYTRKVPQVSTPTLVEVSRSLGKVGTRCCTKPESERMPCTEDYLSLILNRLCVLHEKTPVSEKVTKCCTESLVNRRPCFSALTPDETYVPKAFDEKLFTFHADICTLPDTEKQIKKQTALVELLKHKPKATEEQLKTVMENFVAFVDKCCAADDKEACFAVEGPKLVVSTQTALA
T1 sequence (P10636 other isoform, or with tags, fused parts or gaps limits assumed): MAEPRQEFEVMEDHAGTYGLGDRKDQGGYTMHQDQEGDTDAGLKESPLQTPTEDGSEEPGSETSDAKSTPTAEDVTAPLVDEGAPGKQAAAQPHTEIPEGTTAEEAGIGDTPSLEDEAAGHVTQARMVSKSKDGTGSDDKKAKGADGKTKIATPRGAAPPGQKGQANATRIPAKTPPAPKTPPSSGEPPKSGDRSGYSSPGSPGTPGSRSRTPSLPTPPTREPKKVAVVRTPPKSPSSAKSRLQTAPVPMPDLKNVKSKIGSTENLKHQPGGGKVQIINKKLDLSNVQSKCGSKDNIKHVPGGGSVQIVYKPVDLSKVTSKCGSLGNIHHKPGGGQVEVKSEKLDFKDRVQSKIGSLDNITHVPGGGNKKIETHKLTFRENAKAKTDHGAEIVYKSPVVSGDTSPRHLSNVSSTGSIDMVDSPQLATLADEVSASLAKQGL

The first assay concerns the target T1, full length recombinant human 2N4R tau (human, UniProt P10636 1-758).
T1 construct: bought from rPeptide; pHrodo Red maleimide-labelled where it stands in uptake assays; also called tau1-441; full length tau
In words: SPR SCK, IgG on Protein A, tau in flow.
Regarding B1, the “Fold change (KD, to pVH/pVL)” value was 1.36; the Kd – broadly, the equilibrium constant for the complex coming apart – was determined as 4.84 nM; the koff (commonly the rate constant with which the complex falls apart) came to 0.0203 s⁻¹; the kon (as a rule, a measure of how fast the partners come together) is 4.18e+06 M⁻¹ s⁻¹.
Taken in the same sequence, the figures for B2 were 0.68, 9.72 nM, 0.0122 s⁻¹ and 1.26e+06 M⁻¹ s⁻¹.
B3: the “Fold change (KD, to pVH/pVL)” value came to 0.26; the Kd is 25.7 nM; the koff was found to be 0.011 s⁻¹; the kon was 426000 M⁻¹ s⁻¹.
Taken in the same sequence, the figures for B4 were 0.19, 34.2 nM, 0.00983 s⁻¹ and 287000 M⁻¹ s⁻¹.
The like results for B5 were, in that order, 0.38, 17.3 nM, 0.0148 s⁻¹ and 855000 M⁻¹ s⁻¹.
The like results for B6 were, in that order, 1.03, 6.36 nM, 0.306 s⁻¹ and 4.81e+07 M⁻¹ s⁻¹.
For B7, the “Fold change (KD, to pVH/pVL)” value came to 0.9 and the dissociation constant Kd was 7.35 nM.
The like results for B8 were, in that order, 0.69 and 9.51 nM.
The like results for B9 were, in that order, 1.03 and 6.37 nM.
On to B10, for which the “Fold change (KD, to pVH/pVL)” value is 0.67; the Kd was found to be 9.85 nM; the koff turned out to be 0.032 s⁻¹; the on-rate (kon) worked out at 3.25e+06 M⁻¹ s⁻¹.
With B11, the “Fold change (KD, to pVH/pVL)” value worked out at 1.09; the Kd stood at 6.04 nM; the koff is 0.251 s⁻¹; the kon is 4.16e+07 M⁻¹ s⁻¹.
Take B12: the “Fold change (KD, to pVH/pVL)” value came out at 0.89 and the Kd was found to be 7.38 nM.
The like results for B13 were, in that order, 1.16 and 5.65 nM.
Take B14: the “Fold change (KD, to pVH/pVL)” value amounted to 0.75; the Kd was 8.78 nM; the koff worked out at 0.0404 s⁻¹; the kon was determined as 4.6e+06 M⁻¹ s⁻¹.
Consider B15, for which the “Fold change (KD, to pVH/pVL)” value worked out at 0.75; the Kd stood at 8.76 nM; the koff is 0.0361 s⁻¹; the on-rate (kon) amounted to 4.12e+06 M⁻¹ s⁻¹.
Take B16: the “Fold change (KD, to pVH/pVL)” value was 0.66 and the Kd is 9.95 nM.

A further assay concerns the target T2, Bovine serum albumin (bovine, UniProt P02769 25-607).
T2 construct: also called BSA
The assay can be described thus: ELISA on 1% BSA, HEK supernatant, anti-human IgG-HRP, n=1.
As for B1, the binding result was “no binding (tested: 30 ng/ml (legend 1:100))”.
On the same count and under the same terms, the entry for B2 is “no binding (tested: 30 ng/ml (legend 1:100))”.
For B3, the binding result is reported as “no binding (tested: 30 ng/ml (legend 1:100))”.
With B4, the binding result was “no binding (tested: 30 ng/ml (legend 1:100))”.
The same measure, in the same setting: as for B5, the entry is “no binding (tested: 30 ng/ml (legend 1:100))”.
On to B6, for which the binding result is “no binding (tested: 30 ng/ml (legend 1:100))”.
Regarding B7, the binding result is “no binding (tested: 30 ng/ml (legend 1:100))”.
Still for that read-out and setting: as for B8, the entry is “no binding (tested: 30 ng/ml (legend 1:100))”; as for B9, “no binding (tested: 30 ng/ml (legend 1:100))”.
Consider B10, for which the binding result is on record as “no binding (tested: 30 ng/ml (legend 1:100))”.
Still for that read-out and setting: the entry for B11 is “no binding (tested: 30 ng/ml (legend 1:100))”; for B12 it is “no binding (tested: 30 ng/ml (legend 1:100))”.
The same measure, in the same setting: as for B13, the entry is “no binding (tested: 30 ng/ml (legend 1:100))”; as for B14, “no binding (tested: 30 ng/ml (legend 1:100))”; as for B15, “no binding (tested: 30 ng/ml (legend 1:100))”.
On to B16, for which the binding result is “no binding (tested: 30 ng/ml (legend 1:100))”.
